# Patent publication US20250297012A1 (HEFEI TG IMMUNOPHARMA, published 2025)
# T1: Human B7H6 (ACRO biosystems, B76-H52H8) (human, UniProt Q68D85 25-262)
# T1 construct: Bought protein; also called human B7H6 protein; B7H6 antigen
# T1 sequence (looked up): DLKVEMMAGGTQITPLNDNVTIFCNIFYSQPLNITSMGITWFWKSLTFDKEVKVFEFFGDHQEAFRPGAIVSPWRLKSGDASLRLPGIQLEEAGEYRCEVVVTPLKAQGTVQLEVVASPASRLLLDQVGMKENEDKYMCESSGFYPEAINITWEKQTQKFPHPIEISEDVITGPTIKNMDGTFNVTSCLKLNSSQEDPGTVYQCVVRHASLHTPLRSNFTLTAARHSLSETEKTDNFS
# T2: Human BCMA (ACRO biosystems, BCA-H522y) (human, UniProt Q02223 1-54)
# T2 construct: Bought protein; also called human BCMA protein; BCMA antigen
# T2 sequence (looked up): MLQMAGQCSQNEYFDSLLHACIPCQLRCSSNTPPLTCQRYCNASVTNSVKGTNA
# Experiments:
# [1] = target: T1, Human B7H6 (ACRO biosystems, B76-H52H8); test: ELISA, plate coated with human B7H6 at 2 µg/mL, HRP-goat anti-human IgG, OD450
# Method: (§1) Human B7H6 (ACRO biosystems, B76-H52H8) or human CD16A antigen (ACRO biosystems, Catalog No. CDA-H5220) was diluted to 2 μg/mL with the coating buffer (35 mM NaHCO₃, 15 mM Na₂CO₃, pH 9.6). 100 μL of the diluted solution was added to each well of the enzyme-linked plate and incubated overnight at 4° C. Then, the plate was washed three times with PBST (0.05% Tween 20-PBS, pH 7.2). 300 μL of blocking buffer (1% BSA, 0.05% Tween20-PBS, pH 7.2) was added to the plate and left to stand at room temperature for 2 hours. The plate was washed three times with PBST again. The corresponding bispecific antibody or control antibody hIgG was added to each well and incubated at room temperature for 1 hour. Again, the plate was washed three times with PBST. 100 μL of HRP-goat anti-human IgG secondary antibody (Jackson ImmunoResearch, 109-036-170) diluted with the blocking buffer was added to each well and incubated at room temperature for 1 hour. After incubation, the precipitate was washed three times with PBST. TMB was added to each well. A reaction was performed at room temperature in the dark for 2 min to 5 min. The reaction was terminated by adding 2 M sulfuric acid to each well. OD450 values were read using a microplate reader.
# [2] = target: T3, human CD16A^158F (ACRO biosystems, CDA-H5220) (human, UniProt P08637 17-208); test: ELISA, plate coated with human CD16A at 2 µg/mL, HRP-goat anti-human IgG, OD450
# T3 construct: extracellular domain; Bought protein; also called human CD16A extracellular segment protein
# Method: as §1
# [3] = target: T2, Human BCMA (ACRO biosystems, BCA-H522y); test: ELISA, plate coated with human BCMA at 2 µg/mL, HRP-goat anti-human IgG, OD450
# Method: (§2) Human BCMA (ACRO biosystems, BCA-H522y) or human CD16A antigen (ACRO biosystems, CDD-H52W1) was diluted to 2 μg/mL with the coating buffer (35 mM NaHCO₃, 15 mM Na₂CO₃, pH 9.6). 100 μL of the diluted solution was added to each well of the enzyme-linked plate and incubated overnight at 4° C. Then, the plate was washed three times with PBST (0.05% Tween 20-PBS, pH 7.2). 300 μL of blocking buffer (1% BSA, 0.05% Tween20-PBS, pH 7.2) was added to the plate and left to stand at room temperature for 2 hours. The plate was washed three times with PBST again. The corresponding bispecific antibody or the control antibody hIgG1 was added to each well and incubated at room temperature for 1 hour. The precipitate was washed three times with PBST. 100 μL of HRP-goat anti-human IgG secondary antibody (Jackson ImmunoResearch, 109-036-170) diluted with the blocking buffer was added to each well and incubated at room temperature for 1 hour. The plate was washed three times with PBST. TMB was added to each well. A reaction was performed at room temperature in the dark for 2 min to 5 min. The reaction was terminated by adding 2 M sulfuric acid to each well. OD450 values were read using a microplate reader.
# [4] = target: T4, human CD16A antigen (ACRO biosystems, CDD-H52W1) (human, UniProt P08637 17-208, limits assumed); test: ELISA, plate coated with human CD16A at 2 µg/mL, HRP-goat anti-human IgG, OD450
# T4 construct: Bought protein; also called human CD16A protein
# Method: as §2
# [5] = target: T5, human CD16B^SH (Sino Biological, 11046-H08H2) (human, UniProt O75015 17-200); test: ELISA, plate coated with human CD16B^SH at 2 µg/mL, HRP-goat anti-mouse IgG, OD450
# T5 construct: Bought protein; SH polymorphic form; also called human CD16B^SH protein
# Method: (§3) The ELISA experiment was performed to detect the binding properties of the murine CD16A antibody m40F5 obtained in Example 1. […] Then, the plate was then washed three times with PBST (0.05% Tween 20-PBS, pH 7.2). 300 μL of blocking buffer (1% BSA, 0.05% Tween20-PBS, pH 7.2) was added to the plate and left to stand at room temperature for 2 hours. Then, the plate was washed again three times with PBST. Murine antibody m40F5 or control antibody LS21 (WO2006/125668 EN) was added to each well and incubated at room temperature for 1 hour.
# (§4) Again, the plate was washed three times with PBST. 100 μL of HRP-goat anti-mouse IgG secondary antibody (boster, Catalog No. BA1051) diluted with the blocking buffer was added to each well and incubated at room temperature for 1 hour. The plate was washed three times with PBST. TMB was added to each well. A reaction was performed at room temperature in the dark for 2 min to 5 min. The reaction was terminated with 2 M sulfuric acid. OD450 values were read using a microplate reader.
# [6] = target: T6, human CD16B^NA1 (ACRO biosystems, CDB-H5227) (human, UniProt O75015 17-200, limits assumed); test: ELISA, plate coated with human CD16B^NA1 at 2 µg/mL, HRP-goat anti-mouse IgG, OD450
# T6 construct: Bought protein; NA1 polymorphic form; also called human CD16B^NA1 protein
# Method: as §3, §4
# [7] = target: T7, human CD16B^NA2 (ACRO biosystems, CDB-H5222) (human, UniProt O75015 17-200); test: ELISA, plate coated with human CD16B^NA2 at 2 µg/mL, HRP-goat anti-mouse IgG, OD450
# T7 construct: Bought protein; NA2 polymorphic form; also called human CD16B^NA2 protein
# Method: as §3, §4
# [8] = target: T3, human CD16A^158F (ACRO biosystems, …); test: ELISA, plate coated with human CD16A^158F at 2 µg/mL, HRP-goat anti-mouse IgG, OD450
# Method: as §3, §4
# [9] = target: T8, human CD16A^158V (ACRO biosystems, CD8-H52H4) (human, UniProt P08637 17-208); test: ELISA, plate coated with human CD16A^158V at 2 µg/mL, HRP-goat anti-mouse IgG, OD450
# T8 construct: Bought protein; It is the 158V polymorphic form; also called human CD16A^158V protein
# Method: as §3, §4
# [10] = target: T9, cynomolgus monkey CD16 (ACRO biosystems, FC6-C52H9) (cynomolgus monkey, UniProt Q8SPW2 17-208); test: ELISA, plate coated with cynomolgus monkey CD16 at 2 µg/mL, HRP-goat anti-mouse IgG, OD450
# T9 construct: Bought protein; also called monkey CD16 protein; monkey CD16 antigen
# Method: as §3, §4
# [11] = target: T10, human CD16A protein on CHO-K1 cells overexpressing human CD16A (human, UniProt P08637 17-254); test: Flow cytometry on CHO-K1 cells overexpressing human CD16A, Alexa-647 goat anti-mouse secondary antibody, binding proportion (%)
# T10 construct: also called CHO cell overexpressing a human CD16A protein
# Method: (§5) The CHO-K1 cells overexpressing human CD16A or CHO-K1 cells overexpressing cynomolgus monkey CD16 obtained in Example 1 were diluted to 2×10⁶/mL with PBS and added to a 1.5 mL EP tube at a volume of 100 μL/tube. Then, 10 μL of goat serum was added to each tube. The mixture was blocked at 4° C. for 30 min. The CD16A antibody and the control antibody mlgG at gradient concentrations (5-fold serial dilution, with the highest final concentration of 10 μg/mL) were added and incubated at 4° C. for 30 minutes. Each EP tube was filled with 1 mL of PBS and centrifuged at 3,500 rpm for 5 min at 4° C. The supernatant was completely discarded, and the cells were washed once again with PBS. After another centrifugation, the supernatant was completely discarded. The cells were resuspended in 100 μL/tube of PBS. Alexa-647-conjugated goat anti-murine antibody secondary antibody (Invitrogen) was added at […]. The cells were incubated at 4° C. in the dark for 30 min, and were washed twice with PBS and centrifuged. Then, the supernatant was completely discarded. The cells were resuspended in 200 μL/tube of PBS and detected using a flow cytometer.
# [12] = target: T11, cynomolgus monkey CD16 protein on CHO-K1 cells overexpressing cynomolgus monkey CD16 (cynomolgus monkey, UniProt Q8SPW2 17-254); test: Flow cytometry on CHO-K1 cells overexpressing cynomolgus monkey CD16, Alexa-647 goat anti-mouse secondary antibody, binding proportion (%)
# T11 construct: also called CHO cell overexpressing a cynomolgus monkey CD16A protein; monkey CD16A protein
# Method: as §5
# T3 sequence (P08637 17-208): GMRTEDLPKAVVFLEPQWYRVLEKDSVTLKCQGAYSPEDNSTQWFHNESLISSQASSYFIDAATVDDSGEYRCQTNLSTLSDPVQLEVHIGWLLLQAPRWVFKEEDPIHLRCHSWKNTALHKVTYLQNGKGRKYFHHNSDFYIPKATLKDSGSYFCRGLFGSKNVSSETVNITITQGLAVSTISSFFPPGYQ
# T4 sequence (P08637 17-208 limits assumed): as the sequence (P08637 17-208) above
# T5 sequence (O75015 17-200 N65S/A78D limits assumed): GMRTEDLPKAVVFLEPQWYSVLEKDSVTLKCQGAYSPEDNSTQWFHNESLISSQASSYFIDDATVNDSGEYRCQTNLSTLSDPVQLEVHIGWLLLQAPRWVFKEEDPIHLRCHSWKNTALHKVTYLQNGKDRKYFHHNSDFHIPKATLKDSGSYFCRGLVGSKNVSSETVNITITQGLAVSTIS
# T7 sequence (O75015 17-200 N65S limits assumed): as the sequence (O75015 17-200 N65S/A78D limits assumed) above, with D62A counted along it
# T8 sequence (P08637 17-208 F176V limits assumed): as the sequence (P08637 17-208) above, with F160V counted along it
# T9 sequence (Q8SPW2 17-208 limits assumed): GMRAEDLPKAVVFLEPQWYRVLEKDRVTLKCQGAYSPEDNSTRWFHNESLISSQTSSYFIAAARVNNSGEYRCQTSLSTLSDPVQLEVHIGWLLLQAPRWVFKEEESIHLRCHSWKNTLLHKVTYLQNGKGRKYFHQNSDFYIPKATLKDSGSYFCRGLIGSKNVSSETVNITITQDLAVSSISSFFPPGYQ
# T10 sequence (P08637 17-254 limits assumed): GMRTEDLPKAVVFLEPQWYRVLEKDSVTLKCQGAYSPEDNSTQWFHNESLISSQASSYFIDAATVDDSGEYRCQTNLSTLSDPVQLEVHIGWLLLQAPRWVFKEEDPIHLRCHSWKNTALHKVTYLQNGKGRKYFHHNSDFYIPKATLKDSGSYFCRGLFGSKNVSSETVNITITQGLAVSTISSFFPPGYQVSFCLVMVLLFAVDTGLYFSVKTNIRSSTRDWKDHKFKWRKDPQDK
# T11 sequence (Q8SPW2 17-254 limits assumed): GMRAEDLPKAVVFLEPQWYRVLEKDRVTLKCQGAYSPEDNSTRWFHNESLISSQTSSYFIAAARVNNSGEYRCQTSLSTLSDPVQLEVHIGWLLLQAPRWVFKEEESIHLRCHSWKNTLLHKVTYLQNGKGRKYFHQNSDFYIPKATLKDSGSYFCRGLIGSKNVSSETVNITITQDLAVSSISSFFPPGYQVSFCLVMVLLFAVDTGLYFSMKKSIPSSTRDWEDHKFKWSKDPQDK
# T6 sequence (O75015 other isoform, or with tags, fused parts or gaps limits assumed): as the sequence (O75015 17-200 N65S/A78D limits assumed) above, with S20R, S49N, D62A, N66D, I90V counted along it
binder,measurement,setting,value
"bispecific antibody CD16A×B7H6 (bispecific antibody, human IgG1, L234A L235A, also called CD16A×B7H6 bispecific antibody) chain 1: not shown chain 2: DIVLTQTPLSLSVTPGQPASISCKASQSVDYDGDSYMNWYLQKPGQPPQLLIYAASTLHSGIPDRFSGSGSGTDFTLKISRVEAEDVGVYYCQQSKEDPRTFGQGTKLEIKGGGGSGGGGSGGGGSEVQLVQSGAEVKKPGASVKVSCKASGYTFTDYNMDWVRQAPGQGLEWIGDINPNNGGTLYNQKFRGRVTLTVDTSISTAYMELSRLRSDDTAVYYCARSEVFYGNYADYWGQGTTVTVSSEPKSCDKTHTCPPCPAPEAAGGPSVFLFPPKPKDTLMISRTPEVTCVVVDVSHEDPEVKFNWYVDGVEVHNAKTKPREEQYNSTYRVVSVLTVLHQDWLNGKEYKCKVSNKALPAPIEKTISKAKGQPREPQVCTLPPSREEMTKNQVSLSCAVKGFYPSDIAVEWESNGQPENNYKTTPPVLDSDGSFFLVSKLTVDKSRWQQGNVFSCSVMHEALHNHYTQKSLSLSPGK",EC50 (read off the curve),[1],~0.005 µg/mL
same,EC50 (read off the curve),[2],~0.05 µg/mL
"bispecific antibody CD16A×BCMA (bispecific antibody, human IgG1, L234A L235A, also called CD16A×BCMA bispecific antibody) chain 1: not shown chain 2: DIQMTQSPSSLSASVGDRVTITCSASQDISNYLNWYQQKPGKAPKLLIYYTSNLHSGVPSRFSGSGSGTDFTLTISSLQPEDFATYYCQQYRKLPWTFGQGTKLEIKRGGGGSGGGGSGGGGSQVQLVQSGAEVKKPGSSVKVSCKASGGTFSNYWMHWVRQAPGQGLEWMGATYRGHSDTYYNQKFKGRVTITADKSTSTAYMELSSLRSEDTAVYYCARGAIYDGYDVLDNWGQGTLVTVSSEPKSCDKTHTCPPCPAPEAAGGPSVFLFPPKPKDTLMISRTPEVTCVVVDVSHEDPEVKFNWYVDGVEVHNAKTKPREEQYNSTYRVVSVLTVLHQDWLNGKEYKCKVSNKALPAPIEKTISKAKGQPREPQVCTLPPSREEMTKNQVSLSCAVKGFYPSDIAVEWESNGQPENNYKTTPPVLDSDGSFFLVSKLTVDKSRWQQGNVFSCSVMHEALHNHYTQKSLSLSPGK",EC50 (read off the curve),[3],~0.006 µg/mL
same,EC50 (read off the curve),[4],~0.04 µg/mL
"murine CD16A antibody m40F5 (antibody, mouse IgG2a, kappa, also called murine m40F5 antibody; murine 40F5) heavy: DVQLQESGPGLVKPSQSLSLTCTVTGYSITSDYAWNWIRQFPGNKLEWMGYISYSGYTNYNPSLESRISVTRDTSKNQFFLQLNSVTTEDTATYYCAREVGLRLGWFAYWGQGTLVAVSAAKTTAPSVYPLAPVCGDTTGSSVTLGCLVKGYFPEPVTLTWNSGSLSSGVHTFPAVLQSDLYTLSSSVTVTSSTWPSQSITCNVAHPASSTKVDKKIEPRGPTIKPCPPCKCPAPNLLGGPSVFIFPPKIKDVLMISLSPIVTCVVVDVSEDDPDVQISWFVNNVEVHTAQTQTHREDYNSTLRVVSALPIQHQDWMSGKEFKCKVNNKDLPAPIERTISKPKGSVRAPQVYVLPPPEEEMTKKQVTLTCMVTDFMPEDIYVEWTNNGKTELNYKNTEPVLDSDGSYFMYSKLRVEKKNWVERNSYSCSVVHEGLHNHHTTKSFSRTPGK light: SIVMTQTPKFLLISAGDRVTITCKASQSVNNDVAWYQQKPGQSPKLLIYYASNRYTGVPDHFTGSGYGTDFTFTISTVQAEDLAVYFCQQHYSSPWTFGGGTKLEFKRADAAPTVSIFPPSSEQLTSGGASVVCFLNNFYPKDINVKWKIDGSERQNGVLNSWTDQDSKDSTYSMSSTLTLTKDEYERHNSYTCEATHKTSTSPIVKSFNRNEC",binding result,[5],no binding (tested: 10^4 ng/ml)
same,binding result,[6],no binding (tested: 10^4 ng/ml)
same,binding result,[7],no binding (tested: 10^4 ng/ml)
same,EC50 (read off the curve),[8],~0.02 µg/mL
same,EC50 (read off the curve),[9],~0.03 µg/mL
same,EC50 (read off the curve),[10],~0.02 µg/mL
same,EC50 (read off the curve),[11],~0.02 µg/mL
same,EC50 (read off the curve),[12],~0.005 µg/mL
